Measured values as given in patent US20160122768.

T1: phospho-SRC Y527 peptide [H-TSTEPQ-pY-QPGENL-OH]
T1 chain: TSTEPQYQPGENL

B1: C-terminally HA-tagged wild type (WT) RPTPκ (NM 008983.2), full-length, immunoprecipitated from COS-1 cells (protein)
chain: ALGQFSAGGCTFDDGPGACDYHQDLYDDFEWVHVSAQEPHYLPPEMPQGSYMVVDSSNHDPGEKARLQLPTMKENDTHCIDFSYLLYSQKGLNPGTLNILVRVNKGPLANPIWNVTGFTGRDWLRAELAVSTFWPNEYQVIFEAEVSGGRSGYIAIDDIQVLSYPCDKSPHFLRLGDVEVNAGQNATFQCIATGRDAVHNKLWLQRRNGEDIPVAQTKNINHRRFAASFRLQEVTKTDQDLYRCVTQSERGSGVSNFAQLIVREPPRPIAPPQLLGVGPTYLLIQLNANSIIGDGPIILKEVEYRMTSGSWTETHAVNAPTYKLWHLDPDTEYEIRVLLTRPGEGGTGLPGPPLITRTKCAEPMRTPKTLKIAEIQARRIAVDWESLGYNITRCHTFNVTICYHYFRGHNESRADCLDMDPKAPQHVVNHLPPYTNVSLKMILTNPEGRKESEETIIQTDEDVPGPVPVKSLQGTSFENKIFLNWKEPLEPNGIITQYEVSYSSIRSFDPAVPVAGPPQTVSNLWNSTHHVFMHLHPGTTYQFFIRASTVKGFGPATAINVTTNISAPSLPDYEGVDASLNETATTITVLLRPAQAKGAPISAYQIVVEQLHPHRTKREAGAMECYQVPVTYQNALSGGAPYYFAAELPPGNLPEPAPFTVGDNRTYKGFWNPPLAPRKGYNIYFQAMSSVEKETKTQCVRIATKAAATEEPEVIPDPAKQTDRVVKIAGISAGILVFILLLLVVIVIVKKSKLAKKRKDAMGNTRQEMTHMVNAMDRSYADQSTLHAEDPLSLTFMDQHNFSPRLPNDPLVPTAVLDENHSATAESSRLLDVPRYLCEGTESPYQTGQLHPAIRVADLLQHINLMKTSDSYGFKEEYESFFEGQSASWDVAKKDQNRAKNRYGNIIAYDHSRVILQPVEDDPSSDYINANYIDIWLYRDGYQRPSHYIATQGPVHETVYDFWRMVWQEQSACIVMVTNLVEVGRVKCYKYWPDDTEVYGDFKVTCVEMEPLAEYVVRTFTLERRGYNEIREVKQFHFTGWPDHGVPYHATGLLSFIRRVKLSNPPSAGPIVVHCSAGAGRTGCYIVIDIMLDMAEREGVVDIYNCVKALRSRRINMVQTEEQYIFIHDAILEACLCGETAIPVCEFKAAYFDMIRIDSQTNSSHLKDEFQTLNSVTPRLQAEDCSIACLPRNHDKNRFMDMLPPDRCLPFLITIDGESSNYINAALMDSYRQPAAFIVTQYPLPNTVKDFWRLVYDYGCTSIVMLNEVDLSQGCPQYWPEEGMLRYGPIQVECMSCSMDCDVINRIFRICNLTRPQEGYLMVQQFQYLGWASHREVPGSKRSFLKLILQVEKWQEECEEGEGRTIIHCLNGGGRSGMFCAIGIVVEMVKRQNVVDVFHAVKTLRNSKPNMVEAPEQYRFCYDVALEYLESS
B2: RPTPκ (endogenous, in human RA FLS and RA synovial tissue) (protein)
chain: AQGQFSAGGCTFDDGPGACDYHQDLYDDFEWVHVSAQEPHYLPPEMPQGSYMIVDSSDHDPGEKARLQLPTMKENDTHCIDFSYLLYSQKGLNPGTLNILVRVNKGPLANPIWNVTGFTGRDWLRAELAVSTFWPNEYQVIFEAEVSGGRSGYIAIDDIQVLSYPCDKSPHFLRLGDVEVNAGQNATFQCIATGRDAVHNKLWLQRRNGEDIPVAQTKNINHRRFAASFRLQEVTKTDQDLYRCVTQSERGSGVSNFAQLIVREPPRPIAPPQLLGVGPTYLLIQLNANSIIGDGPIILKEVEYRMTSGSWTETHAVNAPTYKLWHLDPDTEYEIRVLLTRPGEGGTGLPGPPLITRTKCAEPMRTPKTLKIAEIQARRIAVDWESLGYNITRCHTFNVTICYHYFRGHNESKADCLDMDPKAPQHVVNHLPPYTNVSLKMILTNPEGRKESEETIIQTDEDVPGPVPVKSLQGTSFENKIFLNWKEPLDPNGIITQYEISYSSIRSFDPAVPVAGPPQTVSNLWNSTHHVFMHLHPGTTYQFFIRASTVKGFGPATAINVTTNISAPTLPDYEGVDASLNETATTITVLLRPAQAKGAPISAYQIVVEELHPHRTKREAGAMECYQVPVTYQNAMSGGAPYYFAAELPPGNLPEPAPFTVGDNRTYQGFWNPPLAPRKGYNIYFQAMSSVEKETKTQCVRIATKAATEEPEVIPDPAKQTDRVVKIAGISAGILVFILLLLVVILIVKKSKLAKKRKDAMGNTRQEMTHMVNAMDRSYADQSTLHAEDPLSITFMDQHNFSPRYENHSATAESSRLLDVPRYLCEGTESPYQTGQLHPAIRVADLLQHINLMKTSDSYGFKEEYESFFEGQSASWDVAKKDQNRAKNRYGNIIAYDHSRVILQPVEDDPSSDYINANYIDGYQRPSHYIATQGPVHETVYDFWRMIWQEQSACIVMVTNLVEVGRVKCYKYWPDDTEVYGDFKVTCVEMEPLAEYVVRTFTLERRGYNEIREVKQFHFTGWPDHGVPYHATGLLSFIRRVKLSNPPSAGPIVVHCSAGAGRTGCYIVIDIMLDMAEREGVVDIYNCVKALRSRRINMVQTEEQYIFIHDAILEACLCGETAIPVCEFKAAYFDMIRIDSQTNSSHLKDEFQTLNSVTPRLQAEDCSIACLPRNHDKNRFMDMLPPDRCLPFLITIDGESSNYINAALMDSYRQPAAFIVTQYPLPNTVKDFWRLVYDYGCTSIVMLNEVDLSQGCPQYWPEEGMLRYGPIQVECMSCSMDCDVINRIFRICNLTRPQEGYLMVQQFQYLGWASHREVPGSKRSFLKLILQVEKWQEECEEGEGRTIIHCLNGGGRSGMFCAIGIVVEMVKRQNVVDVFHAVKTLRNSKPNMVEAPEQYRFCYDVALEYLESS

Key:
[1] = target: T1, phospho-SRC Y527 peptide …
[2] = target: SRC (endogenous, from RA FLS lysates), P12931

| Protein | in vitro dephosphorylation of the SRC phospho-Y527 peptide (PTP assay, Biomol Green, absorbance at 620 nm) [1] | basal phosphorylation of SRC Y527 in RA FLS after PTPRK knockdown (Western blotting) [2] |
| --- | --- | --- |
| B1 | full-length RPTPk immunoprecipitated from COS-1 cells in vitro dephosphorylated a SRC phospho-Y527 peptide |  |
| B2 |  | RA FLS treated with PTPRK ASO showed increased basal phosphorylation of SRC Y527 |
